Experimental findings from patent publication US8703708 (CINCINNATI CHILDREN S HOSPITAL MEDICAL CENTER, dated 2014) are described below.

The target of test [1] is T1, Lrp6 (endogenous, in mouse kidney) (mouse, UniProt O88572 20-1613).
T1 construct: whole, on cells; Endogenous receptor in whole d5 post I/R kidney or kidney cortex; also called Lipoprotein receptor like protein 6
Put plainly: Western blot for S-tag proteins in whole d5 post I/R kidney from mice treated with Dkk2-C2. The protocol: (§1) For detection of Dkk2-C2, western blots of 50μg of whole kidney protein lysate per lane were incubated with anti-S-tag antibodies (1:500, BD Biosciences) followed by secondary HRP conjugated antibodies. After detection and stripping blots were re-detected with anti-beta-actin (1:1000, Santa Cruz Biotechnology). The purified recombinant Dkk2C contained only one single band in SDS-PAGE.
(§2) This C2 recombinant form of Dkk2 was administered from d0 to WT mice that were uninjured or which had kidney injury. Kidneys were harvested on day 2 and day 7 after injury and assessed quantitatively for injury. […] After detection and stripping blots were re-detected with anti-beta-actin (1:1000, Santa Cruz Biotechnology). […] When systemic delivery of Dkk2 was delayed until after peak injury at d1, it was nevertheless detectable in the kidney (FIG. 5G) and it retained the capacity to improve kidney function as assessed by plasma creatinine levels (FIG. 5D). […] To understand whether Dkk2 was functioning to augment the canonical pathway, Wnt signalling in kidney cortex of d5 post I/R mice was assessed by detection of phosphorylated Lrp6 since canonical signalling requires phosphorylation of this co-receptor (Zeng et al., Nature 438(7069):873-877 (in eng) (2005)) (FIG. 5E). pLrp6 was not detected in healthy adult kidney cortex (FIG. 1G) but was robustly detected in kidney cortex following injury.
In general terms: Immunoblotting shows a protein as a band on a membrane.

Test [2] deals with T2, Lrp5 (endogenous, in mouse kidney) (mouse, UniProt Q91VN0 31-1614).
T2 construct: whole, on cells; Endogenous receptor in whole d5 post I/R kidney; The complex was detected in kidney lysate by Western blot; also called Lipoprotein receptor like protein 5
T2 sequence (Q91VN0 31-1614): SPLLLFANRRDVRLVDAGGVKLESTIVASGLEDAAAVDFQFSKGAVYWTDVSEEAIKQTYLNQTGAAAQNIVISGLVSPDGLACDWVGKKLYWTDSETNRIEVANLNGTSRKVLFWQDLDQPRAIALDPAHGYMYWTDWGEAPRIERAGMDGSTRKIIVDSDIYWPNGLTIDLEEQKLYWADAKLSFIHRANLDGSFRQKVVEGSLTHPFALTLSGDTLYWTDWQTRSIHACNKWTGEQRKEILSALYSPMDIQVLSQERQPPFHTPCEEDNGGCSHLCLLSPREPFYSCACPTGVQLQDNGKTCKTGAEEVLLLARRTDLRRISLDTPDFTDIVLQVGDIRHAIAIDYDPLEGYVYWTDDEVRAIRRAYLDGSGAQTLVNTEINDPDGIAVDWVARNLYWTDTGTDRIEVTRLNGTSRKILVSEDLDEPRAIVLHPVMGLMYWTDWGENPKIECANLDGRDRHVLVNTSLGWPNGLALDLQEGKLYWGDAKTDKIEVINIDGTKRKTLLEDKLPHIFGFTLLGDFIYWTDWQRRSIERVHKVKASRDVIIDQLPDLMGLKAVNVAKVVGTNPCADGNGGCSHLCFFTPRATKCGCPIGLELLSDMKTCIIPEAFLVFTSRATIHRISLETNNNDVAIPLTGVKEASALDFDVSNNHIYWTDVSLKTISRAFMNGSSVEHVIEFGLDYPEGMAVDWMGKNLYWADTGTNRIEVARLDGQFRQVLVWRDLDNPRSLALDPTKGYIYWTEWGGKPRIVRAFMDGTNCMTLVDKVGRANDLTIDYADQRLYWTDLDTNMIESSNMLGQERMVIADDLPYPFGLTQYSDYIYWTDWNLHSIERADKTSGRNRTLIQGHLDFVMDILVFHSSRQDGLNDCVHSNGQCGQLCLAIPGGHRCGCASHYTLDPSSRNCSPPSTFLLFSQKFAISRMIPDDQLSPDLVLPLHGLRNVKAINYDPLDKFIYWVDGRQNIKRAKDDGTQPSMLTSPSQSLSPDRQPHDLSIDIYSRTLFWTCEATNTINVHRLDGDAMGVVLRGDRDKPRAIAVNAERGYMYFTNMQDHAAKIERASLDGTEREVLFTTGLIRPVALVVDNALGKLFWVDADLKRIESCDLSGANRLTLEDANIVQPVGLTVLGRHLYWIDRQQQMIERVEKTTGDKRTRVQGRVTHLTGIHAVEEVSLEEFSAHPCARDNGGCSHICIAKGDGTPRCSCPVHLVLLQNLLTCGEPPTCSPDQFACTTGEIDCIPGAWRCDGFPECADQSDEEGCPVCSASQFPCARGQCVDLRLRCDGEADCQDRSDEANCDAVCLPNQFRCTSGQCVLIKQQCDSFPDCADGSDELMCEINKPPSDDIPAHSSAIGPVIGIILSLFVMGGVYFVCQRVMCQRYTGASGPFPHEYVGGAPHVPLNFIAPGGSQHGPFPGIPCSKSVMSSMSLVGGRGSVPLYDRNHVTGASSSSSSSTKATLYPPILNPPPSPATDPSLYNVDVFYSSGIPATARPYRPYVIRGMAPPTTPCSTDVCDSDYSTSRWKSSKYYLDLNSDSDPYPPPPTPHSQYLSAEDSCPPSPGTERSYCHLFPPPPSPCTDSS
Described as above. The protocol: as §1, §2

T1 sequence (O88572 20-1613): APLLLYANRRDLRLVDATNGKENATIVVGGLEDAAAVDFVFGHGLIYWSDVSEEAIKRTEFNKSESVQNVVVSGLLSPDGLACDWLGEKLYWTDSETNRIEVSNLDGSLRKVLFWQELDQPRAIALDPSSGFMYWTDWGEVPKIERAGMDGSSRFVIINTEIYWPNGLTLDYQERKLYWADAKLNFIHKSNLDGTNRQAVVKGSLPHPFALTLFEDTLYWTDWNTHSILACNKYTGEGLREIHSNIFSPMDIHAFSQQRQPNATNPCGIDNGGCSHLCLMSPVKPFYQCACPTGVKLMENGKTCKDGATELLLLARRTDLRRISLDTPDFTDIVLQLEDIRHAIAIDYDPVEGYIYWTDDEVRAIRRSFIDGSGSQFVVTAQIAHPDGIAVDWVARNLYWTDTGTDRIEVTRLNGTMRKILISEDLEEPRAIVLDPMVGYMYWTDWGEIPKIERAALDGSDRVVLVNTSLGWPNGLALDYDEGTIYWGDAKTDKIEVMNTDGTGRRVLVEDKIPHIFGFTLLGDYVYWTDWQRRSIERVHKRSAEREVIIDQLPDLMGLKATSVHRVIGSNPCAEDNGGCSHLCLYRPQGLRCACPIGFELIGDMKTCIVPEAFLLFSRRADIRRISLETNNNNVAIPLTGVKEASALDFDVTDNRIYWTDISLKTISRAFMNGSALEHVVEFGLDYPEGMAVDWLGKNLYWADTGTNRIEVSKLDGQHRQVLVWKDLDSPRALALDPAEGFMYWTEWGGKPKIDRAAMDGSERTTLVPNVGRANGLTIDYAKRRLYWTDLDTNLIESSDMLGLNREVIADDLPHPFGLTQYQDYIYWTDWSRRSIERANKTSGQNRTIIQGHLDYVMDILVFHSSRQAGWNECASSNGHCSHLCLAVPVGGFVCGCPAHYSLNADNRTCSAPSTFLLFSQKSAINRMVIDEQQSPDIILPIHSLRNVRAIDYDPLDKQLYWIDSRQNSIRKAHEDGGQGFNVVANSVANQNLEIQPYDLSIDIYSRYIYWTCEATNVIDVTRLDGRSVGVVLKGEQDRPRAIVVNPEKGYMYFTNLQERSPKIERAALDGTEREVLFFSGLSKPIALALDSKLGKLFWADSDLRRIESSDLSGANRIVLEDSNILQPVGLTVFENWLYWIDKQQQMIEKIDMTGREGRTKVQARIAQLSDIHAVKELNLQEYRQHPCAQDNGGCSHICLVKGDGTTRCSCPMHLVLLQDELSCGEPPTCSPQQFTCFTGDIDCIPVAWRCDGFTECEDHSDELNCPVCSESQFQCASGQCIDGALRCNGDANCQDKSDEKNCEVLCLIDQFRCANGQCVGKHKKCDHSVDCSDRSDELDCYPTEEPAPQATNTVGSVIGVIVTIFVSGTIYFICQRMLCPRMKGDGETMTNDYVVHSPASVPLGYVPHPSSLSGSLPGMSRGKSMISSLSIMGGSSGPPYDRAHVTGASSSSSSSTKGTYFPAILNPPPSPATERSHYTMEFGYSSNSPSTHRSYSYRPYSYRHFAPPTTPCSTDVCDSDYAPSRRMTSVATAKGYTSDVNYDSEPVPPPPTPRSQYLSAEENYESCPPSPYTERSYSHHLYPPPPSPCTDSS

B1: recombinant protein Dkk2C (amino acids Met172-Ile259 of mouse Dkk2) with N-terminal S tag and thrombin cleavage site (ligand)
chain: MPHIKGHEGDPCLRSSDCIDGFCCARHFWTKICKPVLHQGEVCTKQRKKGSHGLEIFQRCDCAKGLSCKVWKDATYSSKARLHVCQKI
notes: Expressed in E. coli; Detected in kidney lysate with anti-S-tag antibodies, so the S tag was still on the protein; also called Dkk2-C2; D2C2; not shown: N-terminal S tag; thrombin cleavage site between the S tag and Dkk2C
As for B1, the binding result in test [1] and in test [2] was “binds” throughout.
